# Assay results taken from patent US20210244768A1, “CELL COMPOSITIONS AND USES THEREOF” (THE UNIVERSITY OF SYDNEY, priority 2018, published 2021).
# B1: BMP4: agent which induces BMP signalling, added during GABAergic differentiation of hiPSCs (protein, UniProt P12644 293-408, looked up)
# Bone morphogenetic protein 4: SPKHHSQRARKKNKNCRRHSLYVDFSDVGWNDWIVAPPGYQAFYCHGDCPFPLADHLNSTNHAIVQTLVNSVNSSIPKACCVPTELSAISMLYLDEYDKVVLKNYQEMVVEGCGCR
# Legend:
# [1] = test system: PAVB expression; experiment: qPCR of PAVB expression in hiPSC-GABA neurons exposed to BMP4; format: cell-based, human; conditions: BMP4 exposure during week 3 (about DIV14 to DIV21); not with week 4 or weeks 3 and 4
# Procedure: (§1) After quantification, 1 μg of RNA was retrotranscribed with Superscript III First-Strand Synthesis SuperMix for qRT-PCR (Thermo Fisher Scientific Life Sciences). A total of 2 μl of cDNA was used for qPCR using the SYBR Select Master Mix. Real-Time PCR was run on a LightCycler 480 Instrument II (Roche Life Science). The cycling program for all genes is the following: • 1. 95° C. 10′ Initial denaturation step • 2. 95° C. 30″ • 3. 58° C. 30″ • 4. 72° C. 30″ go to 2 for 35 cycles • 5. Melting curve analysis.
# (§2) iGABAergic neurons were prepared according to an adaptation of the method described in Example 5. During the GABAergic differentiation protocol, hiPSCs were exposed to BMP4, during week 3 only (i.e. about DIV14 to about DIV21), week 4 only (i.e. about DIV21 to about DIV28) or during week 3 and week 4 (i.e. about DIV14 to about DIV28). Following differentiation (i.e. DIV28) the iGABAergic neurons were assessed for expression of somatostatin (SST) and Parvalbumin (PVALB). BMP4 treated cells were then be tested for their ability to reverse neuropathic pain and compared to non-treated iGABAergic neurons using the SNI model as hereinbefore described.
# [2] = test system: SST expression; experiment: qPCR of SST expression in hiPSC-GABA neurons exposed to BMP4; format: cell-based, human; conditions: BMP4 exposure during either or both of weeks 3 and 4
# Procedure: as §1, §2
molecule,measurement,setting,value
B1,increase of PAVB expression,[1],6 fold
same,reduction of SST expression,[2],50%
